The text below walks through data of IntAct's records for PubMed 20639899.

First the molecules themselves.
B1: E1B 55 kDa protein (Human adenovirus C serotype 5 (HAdV-5)), P03243-1 (parent)
chain: MERRNPSERGVPAGFSGHASVESGCETQESPATVVFRPPGDNTDGGAAAAAGGSQAAAAGAEPMEPESRPGPSGMNVVQVAELYPELRRILTITEDGQGLKGVKRERGACEATEEARNLAFSLMTRHRPECITFQQIKDNCANELDLLAQKYSIEQLTTYWLQPGDDFEEAIRVYAKVALRPDCKYKISKLVNIRNCCYISGNGAEVEIDTEDRVAFRCSMINMWPGVLGMDGVVIMNVRFTGPNFSGTVFLANTNLILHGVSFYGFNNTCVEAWTDVRVRGCAFYCCWKGVVCRPKSRASIKKCLFERCTLGILSEGNSRVRHNVASDCGCFMLVKSVAVIKHNMVCGNCEDRASQMLTCSDGNCHLLKTIHVASHSRKAWPVFEHNILTRCSLHLGNRRGVFLPYQCNLSHTKILLEPESMSKVNLNGVFDMTMKIWKVLRYDETRTRCRPCECGGKHIRNQPVMLDVTEELRPDHLVLACTRAEFGSSDEDTD

The variants in the first assay derive from B1. To be noted: with PML.
With V103D, the “effect of a mutation on the interaction” value is reported as “disrupting interaction”.

K104R: the “effect of a mutation on the interaction” value is given as “disrupting interaction”.

A further assay covers variants of B1. Conditions: with pml_human PML.
With K104R, the “effect of a mutation on the interaction” value is listed as “disrupting interaction”.
